± gives the standard deviation of the averaged measurements.
tested on: ATP; assay: switch fluorescence ratio, 500 uM ATP over buffer (Cy3 cluster intensity, sum of 5 cycles each) (fold (ratio)); higher = stronger signal-on switching upon ATP binding; sequences stand for … in TCGTCGGCAGCGTCAGATGTGTATAAGAGACAGTTTTTTTTTTTTTTTTTTTTTTTTT…TC; conditions: aptamer strand: ATP DNA aptamer (quencher-CACCTGGGGGAGTATTGCGGAGGAAGG + anchor), 100 nM annealed; ATP concentration: 500 uM
In short: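 Clusters carrying Cy3-labelled switching strands on a modified Illumina MiSeq flow-cell were annealed to 100 nM quencher-labelled ATP aptamer and imaged in selection buffer. They were imaged again after 15 min with 500 uM ATP at 22 °C, over five buffer/ATP cycles with NaOH stripping and re-annealing in between. For each cluster, the fluorescence ratio is the summed Cy3 intensity of the target cycles divided by that of the buffer cycles, averaged per switch-domain sequence. Clusters outside 100-1000 RFU were left out.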
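Note: ATP exposure 15 min at 22 °C before imaging.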

Sequence | switch fluorescence ratio
TACTTATGTG | 1.01 ± 0.02
AGTAGGGGCC | 1.012 ± 0.0083
TACCCTTCGT | 1.11 ± 0.013
TATTACTGAG | 1.07 ± 0.036
ATAATCGGTG | 0.981 ± 0.041
TTATGAAAGC | 1.02 ± 0.042
AATGGGCAGC | 1.02 ± 0.013
TAGCATGTAC | 5.22 ± 0.65
TGGTGTCACG | 0.983 ± 0.017
TTTTTTACTG | 0.991 ± 0.026
GGGGAGTTTG | 1.01 ± 0.064
GACGGTTTAC | 1.65 ± 0.023
ATTATTTTAC | 0.976 ± 0.036
TTGACCTTTG | 1.01 ± 0.011
AAGTGCAAAC | 1.53 ± 0.73
AATATGTTGT | 0.98 ± 0.037
AAATGGATCG | 1 ± 0.018
CATCCCTCAA | 1.86 ± 0.72
GTCAGAAATG | 0.982 ± 0.013
TAAACAAACG | 1.12 ± 0.028
TCCAGATAGG | 0.997 ± 0.048
TAGTCGGGTT | 0.9613 ± 0.0059
GTTCCTTGGA | 1.01 ± 0.045

Sequence | switch fluorescence ratio
TATAGTGCTC | 0.986 ± 0.054
TCGGCTGGGG | 0.991 ± 0.014
GCTAGCTCAG | 1.023 ± 0.008
ATGCCCAGGG | 1.61 ± 0.04
TTCCTTCT | 1.13 ± 0.11
GCTGTAAGGG | 0.988 ± 0.028
TAAAAATTTG | 1.07 ± 0.082
CATTTTGTAT | 0.998 ± 0.013
GCCGTAGTAA | 1.68 ± 0.011
CCCAGCACGT | 1.37 ± 0.04
AGGCAAAGGG | 0.995 ± 0.044
GAGGTTGCTG | 0.987 ± 0.026
GCAATAGGGT | 1.37 ± 0.037
CATTTGTCCG | 1.01 ± 0.071
GCCATAATAT | 1.01 ± 0.023
GGCGAAGGAG | 0.999 ± 0.011
TCGTTTGCGT | 0.984 ± 0.032
TTTTAAAGAT | 0.977 ± 0.021
CCGTCGAATA | 2.2 ± 0.027
TTGGGTAGCC | 1.03 ± 0.032
AGGAATGGTT | 0.992 ± 0.041
GGTGAGGGGG | 1 ± 0.068
GTGACTCCGA | 1.78 ± 0.12

Sequence | switch fluorescence ratio
ACCAATTTGC | 1.05 ± 0.043
GACTGCGGAG | 1 ± 0.026
AAGGTACGAA | 1.04 ± 0.011
AGTCTAAACT | 1.02 ± 0.016
TGGAACTTAT | 0.997 ± 0.056
ATTCCAAGTG | 1.03 ± 0.056
AAGGTTGCGA | 0.9571 ± 0.0024
GGTAAGATGG | 0.995 ± 0.032
TTGGGGGTCT | 0.968 ± 0.044
TAGGGAGGGA | 0.9801 ± 0.0069
TACCACCGGT | 1.02 ± 0.047
CGGGGCTCCT | 0.995 ± 0.036
GCGTGCAATG | 1.026 ± 0.0018
GAACCTAGAG | 0.98 ± 0.056
AAGTTGTGTA | 0.993 ± 0.031
GTTCTTGTTC | 1.004 ± 0.0069
TCAAGGCCTG | 1.01 ± 0.042
TGAGGGGCTT | 1 ± 0.073
TATAGGTGAG | 1.01 ± 0.03
ATTAAGCGGC | 1.05 ± 0.13
CCAGGTTTTG | 1.08 ± 0.031
AAAGTGCTAT | 1.02 ± 0.048
TAATGTAAAA | 0.992 ± 0.01

Sequence | switch fluorescence ratio
AGGGTGCGGA | 0.989 ± 0.036
GAATCATATG | 0.977 ± 0.011
CAGTATGCAC | 1.01 ± 0.047
ACCGGCGTTT | 1.05 ± 0.051
CAGTTAGCAG | 1.06 ± 0.025
TCAGGGTGC | 1.204 ± 0.0036
ACATTATTTC | 1.05 ± 0.033
GCAAGGTTAT | 1.01 ± 0.018
CCGTCGATGG | 1.1 ± 0.036
TGCGACCATT | 1.03 ± 0.04
GGTTGTTTGG | 0.989 ± 0.02
GGGATAATTT | 0.988 ± 0.017
CCAAGGAGTC | 0.992 ± 0.024
GATGCAGGGC | 1.12 ± 0.081
GGTTGTTCGT | 1.006 ± 0.0037
CTAGGATCTA | 0.996 ± 0.062
CACTAGAAGC | 1.037 ± 0.0012
GAAGAGCGGG | 0.978 ± 0.016
AGTTTGGCAC | 1.05 ± 0.057
CAGATAAAAA | 1.03 ± 0.02
TGCTGGAAGT | 0.977 ± 0.032
TTTAACTGA | 1.04 ± 0.044
CGAATGGGGG | 1 ± 0.029

Sequence | switch fluorescence ratio
TTAAGTCAGT | 0.9717 ± 0.005
CCGTTAGTAA | 3.13 ± 0.46
AATTGTGAGG | 1.01 ± 0.023
TGAAGATCGC | 1.02 ± 0.018
TTGCTAGTTG | 0.994 ± 0.036
TACATCGTGC | 0.992 ± 0.016
ACGGGTGGGG | 1.05 ± 0.051
CCAAGCGCCC | 1.63 ± 0.23
TGTGGTAAGT | 1.01 ± 0.062
GAAGATAGGT | 0.993 ± 0.03
ATAAGGAAGT | 1.02 ± 0.028
GGGCATGCGT | 0.973 ± 0.042
TTCAGTTTTG | 0.982 ± 0.024
AGAGGCCGTT | 0.9965 ± 0.0074
AAAAATGTCA | 0.979 ± 0.045
TCGTTTGGAG | 0.998 ± 0.022
TTTTGGGTGG | 0.988 ± 0.034
TTTTCCTTTT | 1.04 ± 0.082
AGACTGACAA | 1.1 ± 0.021
AATAGATTGC | 1.003 ± 0.0092
GGTTGCAAGC | 1.05 ± 0.017
TAGGTGGTTT | 0.989 ± 0.026
AACGGGGTAA | 0.948 ± 0.037

Sequence | switch fluorescence ratio
GCTTGCGATG | 1.01 ± 0.011
GGCATCTAAG | 0.997 ± 0.019
GGGCTAAGGC | 0.9923 ± 0.0037
GCCCTGGTGT | 5.93 ± 0.54
AGCTGGGGTT | 0.9962 ± 0.0062
CATAGGTCAT | 1.03 ± 0.058
TAGTCTTTTT | 1.03 ± 0.027
TGAAGAATGT | 1.02 ± 0.017
AACTCGTAGG | 0.995 ± 0.018
GCTTTAGAGG | 1.004 ± 0.0053
ATGTCGGTCG | 1.02 ± 0.012
GGCGGCTTGG | 1.005 ± 0.0031
GCCAGGCTGG | 1.04 ± 0.021
AAGAGACGGG | 1.009 ± 0.0018
AACCAGAGTA | 1.011 ± 0.0039
TTATTAATT | 0.997 ± 0.028
ACGCCATTCT | 1.151 ± 0.0096
ACATTGGTGG | 0.993 ± 0.026
AGGGCGGATT | 1.01 ± 0.031
GAGGGTCATC | 0.935 ± 0.056
TTGGTGTTTA | 1.01 ± 0.022
ATTCATTGTC | 1.09 ± 0.11
CCGGTCAGCC | 1.11 ± 0.039

Sequence | switch fluorescence ratio
CTGGTCGGGT | 1 ± 0.006
GGTGACTGAG | 1.012 ± 0.009
CATCTAGCAC | 2.63 ± 0.42
GGTTTATGGT | 0.967 ± 0.019
TAAGGAATCG | 1 ± 0.043
AGATAATTAG | 1 ± 0.023
TTAAGGGTCC | 0.984 ± 0.061
CGTGGGAGGG | 0.99 ± 0.011
TCGGCACATT | 1.46 ± 0.63
ACATTGACGC | 1.08 ± 0.021
TCGGCGGGTC | 0.9973 ± 0.0015
TTGATCTGGT | 1.01 ± 0.027
AACGTTGCCC | 1.01 ± 0.025
TATGCATGGA | 1.009 ± 0.0082
AGTGGGATTA | 1.01 ± 0.021
GAATTCAGGT | 0.994 ± 0.011
ATCGGTGACA | 1 ± 0.035
CAGGGCGGGC | 0.84 ± 0.073
TACGATGTGG | 1.007 ± 0.0088

From the supplement of paper PMC10126150
